The target of test [1] is T1, human CLDN4 (Claudin-4) expressed by human cancer cell lines (Capan-2, HPAF-II, MCF7, HT-29, SW480, 22Rv1, DU … (human, UniProt O14493 1-209)).
T1 construct: Endogenous protein on cell lines; MCF7 is said to express both CLDN3 and CLDN4; also called CLDN4 expressed in breast cancer cells, colorectal cancer cells and prostate cancer cells
T1 sequence: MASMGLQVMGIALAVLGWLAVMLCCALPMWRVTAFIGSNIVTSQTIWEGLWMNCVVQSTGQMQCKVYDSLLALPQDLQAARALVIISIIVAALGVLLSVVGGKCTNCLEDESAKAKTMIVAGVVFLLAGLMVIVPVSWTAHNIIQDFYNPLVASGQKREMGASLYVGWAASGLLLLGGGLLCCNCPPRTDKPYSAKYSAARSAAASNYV
Description: FCM on live Capan-2 and HPAF-II cells, 8.6 µg/ml. The procedure: Human pancreatic cancer cell lines Capan-2 and HPAF-II human lymphoma cell line Daudi (ATCC CCL-213), human breast cancer cell line MCF7 (ATCC HTB-22), human colorectal cancer cell lines HT-29 (ATCC HTB-38) and SW480 (ATCC CCL-228) and human prostate cancer cell line s 22Rv1 (ATCC CRL-2505), DU 145 (ATCC HTB-81) and PC-3 (ATCC CRL-1435) were cultured for 3 to 4 days, and adhered cells were peeled off using 0.02% EDTA solution (manufactured by Nacalai Tesque) to recover the cells. The thus recovered cells were washed with PBS and, in order to prevent nonspecific adsorption of antibodies, blocked at ice temperature for 30 minutes using BSA-PBS. The cells were dispensed at 1 to 5×10⁵ cells/100 μl BSA-PBS into a 96-well U bottom plate and centrifuged (1,500 rpm, 5 minutes), the supernatant was removed and then a mouse anti-serum to be immunized, a culture supernatant of hybridoma KM3900 (8.6 μg/ml), anti-CLDN4 monoclonal antibodies KM3900 and KM3907 diluted to 5 μg/ml or a mouse IgG2a isotype control (manufactured by DAKO) was dispensed as the primary antibody at 100 μl/well and allowed to react at ice temperature for 60 minutes. […] After the reaction, the cells were washed once with BSA-PBS and suspended in PBS, and the fluorescent intensity was measured by FCM (manufactured by Beckman Coulter). […]

For test [2], the target named is T1, human CLDN4 (Claudin-4) expressed by …. Put plainly: FCM on live cancer cell lines, 5 µg/ml. The procedure:
Human pancreatic cancer cell lines Capan-2 and HPAF-II human lymphoma cell line Daudi (ATCC CCL-213), human breast cancer cell line MCF7 (ATCC HTB-22), human colorectal cancer cell lines HT-29 (ATCC HTB-38) and SW480 (ATCC CCL-228) and human prostate cancer cell line s 22Rv1 (ATCC CRL-2505), DU 145 (ATCC HTB-81) and PC-3 (ATCC CRL-1435) were cultured for 3 to 4 days, and adhered cells were peeled off using 0.02% EDTA solution (manufactured by Nacalai Tesque) to recover the cells. The thus recovered cells were washed with PBS and, in order to prevent nonspecific adsorption of antibodies, blocked at ice temperature for 30 minutes using BSA-PBS. The cells were dispensed at 1 to 5×10⁵ cells/100 μl BSA-PBS into a 96-well U bottom plate and centrifuged (1,500 rpm, 5 minutes), the supernatant was removed and then a mouse anti-serum to be immunized, a culture supernatant of hybridoma KM3900 (8.6 μg/ml), anti-CLDN4 monoclonal antibodies KM3900 and KM3907 diluted to 5 μg/ml or a mouse IgG2a isotype control (manufactured by DAKO) was dispensed as the primary antibody at 100 μl/well and allowed to react at ice temperature for 60 minutes. […] After the reaction, the cells were washed once with BSA-PBS and suspended in PBS, and the fluorescent intensity was measured by FCM (manufactured by Beckman Coulter).

This is an account of results in US20090202556A1 (Kyowa Kirin, published 2009).

B1: anti-CLDN4 monoclonal antibody KM3900 produced by hybridoma KM3900 (FERM BP-10751) (antibody, V domains shown)
VH: EVQLQQSGPELVKPGASVKISCKASGYTFTDYYMNWVKQSHGKSLEWIGDVVPNNGVPTYNQKFKGKATLTVDKSSSTAYMELRSLTSEDSAVYYCARPHYYYAGRSGAMDYWGQGTSVTVSS
VL: QIVLTQSPAIMSASLGERVTMTCTASSTVSSTYLHWYQQKPGSSPKLWIYSTSNLASGVPARFSGSGSGTSYSLTISSMEAEDAATYYCHQYHRSPPTFGGGTKLEIK
notes: Used as hybridoma culture supernatant (8.6 µg/ml) or purified antibody (5 µg/ml); also called anti-CLDN4 mouse antibody KM3900
In the case of B1, the binding result in test [1] is reported as “binds”.

B2: anti-CLDN4 monoclonal antibody KM3907 produced by hybridoma KM3907 (FERM BP-10885) (antibody, mouse IgG2a, V domains shown)
VH: QVQLQQSGPELVKPGASVKISCKASGYAISTSWMNWVKQRPGKGLEWIGRINPGDGNTNYNGKFMAKATLTADKPSSTAYMQLSSLTSEDSAVYFCTRGDRWSGAMDYWGQGTSVTVSS
VL: GNVLTQSPAIMSASPGEKVTMTCRASSSVSSSYLHWYQQKSGASPKLWIYSTSNLASGVPVRFSGSGSGTSYSLTISSVEAEDAATYYCQQYSGFPLTFGAGTKLELK
On to B2, for which the binding result in test [2] was “binds”.
